Results taken from paper PMC12316266, “Biochemical analysis of human eIF4E-DCP2 interaction: Implications for the relationship between translation initiation and decapping”.

Assays:
[1] = molecular target: T1, eIF4E (Homo sapiens, UniProt P06730 1-217); test: EMSA; 10 mM MgOAc; 2.5 uM eIF4E; Cy5 label implied; MST: 100 mM NaCl, 50 mM Tris-Cl pH 7.9, 1 mM DTT, 100 ug/ml BSA, 37 C (10 mM MgCl2 only when stated), 4 nM RNA; EMSA: same buffer plus 5% glycerol, no Mg2+, 24; conditions: protein: recombinant; tags: His6-protein G-TEV tag, removed by TEV; label: 3' Cy5; single strand
[2] = molecular target: T2, Dcp2 (Homo sapiens, UniProt Q8IU60 1-420); test: MST; no Mg2+; RNA pre-incubated with 80 nM eIF4E; Hill coefficient 1.99 ± 0.83; MST: 100 mM NaCl, 50 mM Tris-Cl pH 7.9, 1 mM DTT, 100 ug/ml BSA, 37 C (10 mM MgCl2 only when stated), 4 nM RNA; EMSA: same buffer plus 5% glycerol, no Mg2+, 24; conditions: protein: recombinant; tags: His6-protein G-TEV tag, removed by TEV; label: 3' Cy5; single strand
[3] = molecular target: T2, Dcp2; test: MST; no Mg2+; Hill coefficient 1.56 ± 0.49; MST: 100 mM NaCl, 50 mM Tris-Cl pH 7.9, 1 mM DTT, 100 ug/ml BSA, 37 C (10 mM MgCl2 only when stated), 4 nM RNA; EMSA: same buffer plus 5% glycerol, no Mg2+, 24; conditions: protein: recombinant; tags: His6-protein G-TEV tag, removed by TEV; label: 3' Cy5; single strand
[4] = molecular target: Dcp2 E147Q,E148Q (Homo sapiens, UniProt Q8IU60 1-420, E147Q;E148Q); test: MST; no Mg2+ (implied); MST: 100 mM NaCl, 50 mM Tris-Cl pH 7.9, 1 mM DTT, 100 ug/ml BSA, 37 C (10 mM MgCl2 only when stated), 4 nM RNA; EMSA: same buffer plus 5% glycerol, no Mg2+, 24; conditions: protein: recombinant; tags: His6-protein G-TEV tag, removed by TEV; label: 3' Cy5; single strand
[5] = molecular target: T2, Dcp2; test: MST; no Mg2+; Hill coefficient 1.22 ± 0.39; MST: 100 mM NaCl, 50 mM Tris-Cl pH 7.9, 1 mM DTT, 100 ug/ml BSA, 37 C (10 mM MgCl2 only when stated), 4 nM RNA; EMSA: same buffer plus 5% glycerol, no Mg2+, 24; conditions: protein: recombinant; tags: His6-protein G-TEV tag, removed by TEV; label: 3' Cy5; single strand
[6] = molecular target: T1, eIF4E; test: EMSA; 10 mM MgOAc; 2.5 uM eIF4E; MST: 100 mM NaCl, 50 mM Tris-Cl pH 7.9, 1 mM DTT, 100 ug/ml BSA, 37 C (10 mM MgCl2 only when stated), 4 nM RNA; EMSA: same buffer plus 5% glycerol, no Mg2+, 24; conditions: protein: recombinant; tags: His6-protein G-TEV tag, removed by TEV; label: 3' Cy5 (implied); single strand
[7] = molecular target: T2, Dcp2; test: MST; no Mg2+; Hill coefficient 1.89 ± 0.78; MST: 100 mM NaCl, 50 mM Tris-Cl pH 7.9, 1 mM DTT, 100 ug/ml BSA, 37 C (10 mM MgCl2 only when stated), 4 nM RNA; EMSA: same buffer plus 5% glycerol, no Mg2+, 24; conditions: protein: recombinant; tags: His6-protein G-TEV tag, removed by TEV; label: 3' Cy5; single strand
[8] = molecular target: T1, eIF4E; test: EMSA; no Mg2+; 625 nM eIF4E; MST: 100 mM NaCl, 50 mM Tris-Cl pH 7.9, 1 mM DTT, 100 ug/ml BSA, 37 C (10 mM MgCl2 only when stated), 4 nM RNA; EMSA: same buffer plus 5% glycerol, no Mg2+, 24; conditions: protein: recombinant; tags: His6-protein G-TEV tag, removed by TEV; single strand

T1 sequence (P06730 whole entry): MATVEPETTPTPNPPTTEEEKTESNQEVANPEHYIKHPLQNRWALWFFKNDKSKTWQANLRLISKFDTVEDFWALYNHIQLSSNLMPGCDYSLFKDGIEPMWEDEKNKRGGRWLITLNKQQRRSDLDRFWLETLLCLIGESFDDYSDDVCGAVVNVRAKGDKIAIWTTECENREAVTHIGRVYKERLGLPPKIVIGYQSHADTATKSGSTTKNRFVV

B1: m7G-capped 43-mer RNA, 3' Cy5 (ssRNA)
RNA: AGGAAAUAAGAGAGAAAAGAAGAGUAAGAAGAAAUAUAAGAGC
modifications: 5' m7GpppAm cap (2'-O-methyl on first A)
[1]
  binding result: binds
[2]
  apparent K (half saturation): 72 ± 20 nM
[3]
  apparent K (half saturation): 157 ± 26 nM
[4]
  binding result: no binding

B2: 5' triphosphate 43-mer RNA (ssRNA)
RNA: B1 RNA
modifications: 5' triphosphate
[1]
  binding result: no binding
[5]
  apparent K (half saturation): 151 ± 29 nM

B3: A-capped 43-mer RNA (ssRNA)
RNA: B1 RNA
modifications: 5' ApppAm cap (2'-O-methyl on first A)
[6]
  binding result: no binding

B4: 5' monophosphate 43-mer RNA (ssRNA)
RNA: B1 RNA
modifications: 5' monophosphate
[7]
  apparent K (half saturation): 96 ± 16 nM

B5: m7G-capped 43-mer RNA, 3' unlabeled (ssRNA)
RNA: B1 RNA
modifications: 5' m7GpppAm cap (2'-O-methyl on first A)
[8]
  binding result: binds
